Results as given in the RNAGym collection of RNA variant scans (doi:10.1073/pnas.2313332121).
Fewer inactive variants are shown than the library holds.

B1: TPR 5TU (parent)
chain: GGAUCUUCUCGAUCUAACAAAAAAGACAAAUCUGCCACAAAGCUUGAGAGCAUCUUCGGAUGCAGAGGCGGCAGCCUUCGGUGGCGCGAUAGCGCCAACGUUCUCAACUAUGACACGCAAAACGCGUGCUCCGUUGAAUGGAGUUUAUCAUG

Variants of: B1
Assay: polymerase ribozyme fitness, log enrichment relative to wild type (log ratio); higher = more active; in vitro selection for triplet polymerase activity
How it was run: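 A heterodimeric triplet polymerase ribozyme had each of its subunits mutagenized by PCR into a library, which was transcribed. One round of in vitro selection, done in triplicate, annealed each library with a biotinylated primer, its partner subunit and triplets, then incubated it frozen at −7 °C before gel excision of extended constructs, streptavidin-bead capture and RT-PCR. Fitness is the logarithm of genotype enrichment relative to wild-type enrichment, based on Illumina sequencing of inputs and outputs and inverse-variance-weighted replicate averages. A base-2 logarithm is used, and genotypes were kept only with ≥10 input reads and ≥1 read per output.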

Variant | polymerase ribozyme fitness (log ratio)
C36U A64G G94A A110G | -4.2
C36G G80U C85U C87A U109G U139C A142G | ≤ -4.2
A37U A60U C75U C96A U111A | ≤ -4.2
C36A A150U | -4.01
A37C C87U | -0.492
A37U G70C C85U G92A | ≤ -4.2
C35U C125A U134C | -0.129
C35G C75U A91U U148C A150G | ≤ -4.2
C35U A41C C105A | -4.09
G34A G46A C76G G136A U144A | ≤ -4.2
C35G G74A U90A C95U | ≤ -4.2
A37C A41U A52C C118A | -3.42
A37C U56A | -0.806
C35U G88C C103U | ≤ -4.2
A37C C38U G71A U109G C123G | ≤ -4.2
C35A A60C U102G | ≤ -4.2
G34U A37G G50U A89C G92A A138U | ≤ -4.2
C35U U61A G86A C125G G141U | ≤ -4.2
A37G C69G | -0.726
C35U G42C C76A C93A G117C | ≤ -4.2
C36A C63U | -4.08
C35A A49G C87A C103A | ≤ -4.2
C36A C93G C125A | ≤ -4.2
A37G A40U A115G A142U | ≤ -4.2

Variant | polymerase ribozyme fitness (log ratio)
A37U C72A C95U | ≤ -4.2
C35U C43A A60C U101G | ≤ -4.2
C35U | -0.0953
C35A | -2.69
C35G | -3.25
G34A G84A C95G | -0.00509
C38A C93A G136A | -1.47
C35G C87U | -4.18
C36A C87U | -3.89
A37G C54U G59C C69U | -1.86
G34A C85U A147C U148G G152U | ≤ -4.2
A37C C63G C99A U111C C114U A119U | ≤ -4.2
C35U U78A G128A | ≤ -4.2
A37G A52G C69A U144G | -4.11
G34U U56G G58A C69G G94C A97G U134C | ≤ -4.2
A37C C38U U53A A91G | -3.98
G34A U101A | -2.82
C38A A91G | -3.39
C36U G58A A119G G140A | -4.18
G34A U78G G86U A106G A115G A120G | ≤ -4.2
C35U G92A C96G A98C | -3.23
A37C G70C C87A C125U | ≤ -4.2
C36G C57G C72G C118U | ≤ -4.2
C36A C96A | ≤ -4.2

Variant | polymerase ribozyme fitness (log ratio)
C35A G50C G86U C118A | ≤ -4.2
C36U A37U A73G A91U C149U G152U | ≤ -4.2
A37G A47G U101C | -2.53
A37G C54U | -2.05
A37C U56A C85A C99G A107G G124A | ≤ -4.2
A37C A40C G58U G94A A97U G143C | ≤ -4.2
C36A G42C U55A A66C C69U C105G A122U G126A A142C | ≤ -4.2
A37U C79U C116A | -4.15
G34A U55A G70U G80U G86A | ≤ -4.2
C38A A89G C95G G124A | -2.76
C35A A41C C57U C85G | ≤ -4.2
C35U C72U U82G C96U A106G G112A | ≤ -4.2
G34C C51A G58A G59C C96A A107U | ≤ -4.2
A37C G83A | -0.102
C38A C76G G92C | ≤ -4.2
A37G C131U U134C | -1.56
C36U G143A | -2.3
C35A C76A | -4.08
C35A C76U | -3.95
C36U A60G C87A G88C G141C | ≤ -4.2
C35G G94C U101C A115C | ≤ -4.2
A37G C38G G83U C118A C123U | -4.05
C35U A98G C99A U101C G141A | ≤ -4.2
C36G U56A A98G | -3.71

Variant | polymerase ribozyme fitness (log ratio)
C35G U53G A64C C79G U109A A115U G128C A142G | ≤ -4.2
C36A C54G U61G C79A G80A U102C | ≤ -4.2
C35G U55A G58A G86U A147U | -4.06
C36U C51G C76G G81C A107G G143A | ≤ -4.2
C35U U82C | 0.243
C36A U82G U135C U145G G152U | -3.98
G34U U55A A91G G94U | ≤ -4.2
C35U C85G C132U | -3.12
C35U C76A C95U U148A | ≤ -4.2
C35A U45A U101A | -4.13
A37C A49C G124A U130G | ≤ -4.2
G34A C85A A91C C103G | ≤ -4.2
C35A C57U C85U C118U G128A G152U | -3.96
C36A A39G G59U C85A A98U A107C | ≤ -4.2
C36U C87U | -1.6
A37C U127G | -3.83
C35G U55A C85U | ≤ -4.2
C36A G92A | -3.98
C35U C63A | -0.573
C35U G58U G74A G80U G83A C116G | ≤ -4.2
A37C G58A C87A U101G G124C A150U | ≤ -4.2
C36A C85U A98G C125A | ≤ -4.2
C35U U77A C149A | ≤ -4.2
C35U C95A | -0.608

Variant | polymerase ribozyme fitness (log ratio)
C35U A40U U55A C99A U101G G152A | ≤ -4.2
C36A C51U G68A C85G A97U | ≤ -4.2
A37U G50C U78C A98U U134C | ≤ -4.2
C36U A107G U151A | ≤ -4.2
G34A C85A G133A | ≤ -4.2
G34C G74A U109A C123U C149U | ≤ -4.2
C36U C54A G68A G71A C95G A115U A122G | ≤ -4.2
A37G A41C U53C C85U U104C G128C C149G | ≤ -4.2
C35G C79A G83A A121U | ≤ -4.2
C35G C95G A97C C114G G124A A138G | ≤ -4.2
C35G G58A G59U A60U A73C C116G C123A G140C | ≤ -4.2
C36U A37G U53A C54U C87G | ≤ -4.2
C36A C93A C105G C125A | ≤ -4.2
C35G G71A C96G U139G | -3.91
A37C C54G G92U A97U A119U | ≤ -4.2
A37U A60G A91G G143C | ≤ -4.2
A37U C114U A115G A120U | -3.83
A37U A49U U55A U56A U127A | ≤ -4.2
C35G A37C A52G G86U A97G | -4.2
A37C C69G G70A C116A | -3.56
A37G G81C A142C | -3.82
A37C C51U G58C C95G C118A | -3.66
C36U C103G | -3.78
C36U G46A A64G G80C | ≤ -4.2

Variant | polymerase ribozyme fitness (log ratio)
A37C C72G C79A | ≤ -4.2
C35U A47U U148A A150U | ≤ -4.2
C35U G133U | -3.79
C35U G92C U135C | -2.73
G34A C36G C69G C76A C95G G112A | ≤ -4.2
C36U G92C | -1.37
C38A A49C G67A C79G | ≤ -4.2
C36A G84U U102A C103U U127C | ≤ -4.2
A37C C57G C76G A98G A138C G140U | -3.42
C36U A37U U56A A91C C116G | ≤ -4.2
C36G A49C G58A G70C U82G A98U U104A A106G | ≤ -4.2
A37C A41U C93U C118A | -2.93
G34U G94C | -3.96
C38A C85A | -2.61
C35U G117A U144G A147C | -0.649
A37C A97G | 0.477
A37G A60G C87U | -1.88
A37U A64C U135C | ≤ -4.2
C35A U53A G62A | ≤ -4.2
A37U C51U A97C | -2.02
C36A C76U | ≤ -4.2
C35A A60G C87U C96A G136A U146A | -4.03
A37C A52G U82C C85G C95U C105U A142C A150G | ≤ -4.2
G34U G42A U82C U135C | ≤ -4.2

Variant | polymerase ribozyme fitness (log ratio)
G34U A47G C57G G68A U102A | ≤ -4.2
A37G C93U C116G | -2.65
A37C U55A C72U G88C A98G C103G U127C U134A | ≤ -4.2
C36G C95A | -3.65
C36U C96U A142C | -2.88
G34U A60C G62A G70A G83C C95G U104C | ≤ -4.2
C35A G42A A91U | -3.84
C36G C51U C54U C93G | ≤ -4.2
C35U U135A | -0.972
C35U U135G | -3.62
C35A A91G C105U | -4.17
C35U A60G C79U G86C C93G G94A U104C | ≤ -4.2
C35G G58C C75G C76U A89U C95G C108A A137C | ≤ -4.2
A37C G86U C87U C108U A113G G117A | ≤ -4.2
C35U C57A U61A G67A C95A C103A C116U | ≤ -4.2
C35U U55A U56A G92A A110U U135A G152C | ≤ -4.2
A37C G70U C96G | ≤ -4.2
C36U A91U | ≤ -4.2
C36A G117U U148C | ≤ -4.2
A37C U45A C79U A97U U144A | ≤ -4.2
C35U A37C U55A C95U | -1.32
C35U C75U G83A G84A C95U C96U | -1.5
C35U A142G | -1.79
